Experimental data taken from IntAct's records for PubMed 31515488.

B1: Serine/threonine-protein kinase PAK 5 (Homo sapiens), Q9P286 (parent)
chain: MFGKKKKKIEISGPSNFEHRVHTGFDPQEQKFTGLPQQWHSLLADTANRPKPMVDPSCITPIQLAPMKTIVRGNKPCKETSINGLLEDFDNISVTRSNSLRKESPPTPDQGASSHGPGHAEENGFITFSQYSSESDTTADYTTEKYREKSLYGDDLDPYYRGSHAAKQNGHVMKMKHGEAYYSEVKPLKSDFARFSADYHSHLDSLSKPSEYSDLKWEYQRASSSSPLDYSFQFTPSRTAGTSGCSKESLAYSESEWGPSLDDYDRRPKSSYLNQTSPQPTMRQRSRSGSGLQEPMMPFGASAFKTHPQGHSYNSYTYPRLSEPTMCIPKVDYDRAQMVLSPPLSGSDTYPRGPAKLPQSQSKSGYSSSSHQYPSGYHKATLYHHPSLQSSSQYISTASYLSSLSLSSSTYPPPSWGSSSDQQPSRVSHEQFRAALQLVVSPGDPREYLANFIKIGEGSTGIVCIATEKHTGKQVAVKKMDLRKQQRRELLFNEVVIMRDYHHDNVVDMYSSYLVGDELWVVMEFLEGGALTDIVTHTRMNEEQIATVCLSVLRALSYLHNQGVIHRDIKSDSILLTSDGRIKLSDFGFCAQVSKEVPKRKSLVGTPYWMAPEVISRLPYGTEVDIWSLGIMVIEMIDGEPPYFNEPPLQAMRRIRDSLPPRVKDLHKVSSVLRGFLDLMLVREPSQRATAQELLGHPFLKLAGPPSCIVPLMRQYRHH
B2: Isoform 1 of Aminoacylase-1 (Homo sapiens), Q03154-1 (parent)
chain: MTSKGPEEEHPSVTLFRQYLRIRTVQPKPDYGAAVAFFEETARQLGLGCQKVEVAPGYVVTVLTWPGTNPTLSSILLNSHTDVVPVFKEHWSHDPFEAFKDSEGYIYARGAQDMKCVSIQYLEAVRRLKVEGHRFPRTIHMTFVPDEEVGGHQGMELFVQRPEFHALRAGFALDEGIANPTDAFTVFYSERSPWWVRVTSTGRPGHASRFMEDTAAEKLHKVVNSILAFREKEWQRLQSNPHLKEGSVTSVNLTKLEGGVAYNVIPATMSASFDFRVAPDVDFKAFEEQLQSWCQAAGEGVTLEFAQKWMHPQVTPTDDSNPWWAAFSRVCKDMNLTLEPEIMPAATDNRYIRAVGVPALGFSPMNRTPVLLHDHDERLHEAVFLRGVDIYTRLLPALASVPALPSDS
B3: Grainyhead-like protein 2 homolog (Homo sapiens), Q6ISB3 (parent)
chain: MSQESDNNKRLVALVPMPSDPPFNTRRAYTSEDEAWKSYLENPLTAATKAMMSINGDEDSAAALGLLYDYYKVPRDKRLLSVSKASDSQEDQEKRNCLGTSEAQSNLSGGENRVQVLKTVPVNLSLNQDHLENSKREQYSISFPESSAIIPVSGITVVKAEDFTPVFMAPPVHYPRGDGEEQRVVIFEQTQYDVPSLATHSAYLKDDQRSTPDSTYSESFKDAATEKFRSASVGAEEYMYDQTSSGTFQYTLEATKSLRQKQGEGPMTYLNKGQFYAITLSETGDNKCFRHPISKVRSVVMVVFSEDKNRDEQLKYWKYWHSRQHTAKQRVLDIADYKESFNTIGNIEEIAYNAVSFTWDVNEEAKIFITVNCLSTDFSSQKGVKGLPLMIQIDTYSYNNRSNKPIHRAYCQIKVFCDKGAERKIRDEERKQNRKKGKGQASQTQCNSSSDGKLAAIPLQKKSDITYFKTMPDLHSQPVLFIPDVHFANLQRTGQVYYNTDDEREGGSVLVKRMFRPMEEEFGPVPSKQMKEEGTKRVLLYVRKETDDVFDALMLKSPTVKGLMEAISEKYGLPVEKIAKLYKKSKKGILVNMDDNIIEHYSNEDTFILNMESMVEGFKVTLMEI
partner: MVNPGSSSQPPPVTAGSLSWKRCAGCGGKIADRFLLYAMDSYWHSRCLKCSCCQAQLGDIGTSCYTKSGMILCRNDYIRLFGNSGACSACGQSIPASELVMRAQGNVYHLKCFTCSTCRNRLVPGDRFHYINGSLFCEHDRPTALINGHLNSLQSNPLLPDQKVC
B4: Transmembrane protein 187 (Homo sapiens), Q14656 (parent)
chain: MNPEWGQAFVHVAVAGGLCAVAVFTGIFDSVSVQVGYEHYAEAPVAGLPAFLAMPFNSLVNMAYTLLGLSWLHRGGAMGLGPRYLKDVFAAMALLYGPVQWLRLWTQWRRAAVLDQWLTLPIFAWPVAWCLYLDRGWRPWLFLSLECVSLASYGLALLHPQGFEVALGAHVVAAVGQALRTHRHYGSTTSATYLALGVLSCLGFVVLKLCDHQLARWRLFQCLTGHFWSKVCDVLQFHFAFLFLTHFNTHPRFHPSGGKTR
partner: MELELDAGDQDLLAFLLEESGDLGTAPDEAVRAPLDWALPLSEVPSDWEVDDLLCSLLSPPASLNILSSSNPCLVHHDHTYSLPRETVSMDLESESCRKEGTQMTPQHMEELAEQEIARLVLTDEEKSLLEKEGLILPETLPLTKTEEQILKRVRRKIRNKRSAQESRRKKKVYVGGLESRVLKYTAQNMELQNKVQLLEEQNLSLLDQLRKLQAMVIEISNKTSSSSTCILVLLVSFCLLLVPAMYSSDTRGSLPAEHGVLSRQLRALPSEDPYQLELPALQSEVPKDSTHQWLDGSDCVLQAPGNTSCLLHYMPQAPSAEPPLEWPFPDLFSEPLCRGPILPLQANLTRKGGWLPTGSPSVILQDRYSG
B5: Trichoplein keratin filament-binding protein (Homo sapiens), Q9BT92 (parent)
chain: MALPTLPSYWCSQQRLNQQLARQREQEARLRQQWEQNSRYFRMSDICSSKQAEWSSKTSYQRSMHAYQREKMKEEKRRSLEARREKLRQLMQEEQDLLARELEELRLSMNLQERRIREQHGKLKSAKEEQRKLIAEQLLYEHWKKNNPKLREMELDLHQKHVVNSWEMQKEEKKQQEATAEQENKRYENEYERARREALERMKAEEERRQLEDKLQAEALLQQMEELKLKEVEATKLKKEQENLLKQRWELERLEEERKQMEAFRQKAELGRFLRHQYNAQLSRRTQQIQEELEADRRILQALLEKEDESQRLHLARREQVMADVAWMKQAIEEQLQLERAREAELQMLLREEAKEMWEKREAEWARERSARDRLMSEVLTGRQQQIQEKIEQNRRAQEESLKHREQLIRNLEEVRELARREKEESEKLKSARKQELEAQVAERRLQAWEADQQEEEEEEEARRVEQLSDALLQQEAETMAEQGYRPKPYGHPKIAWN
partner: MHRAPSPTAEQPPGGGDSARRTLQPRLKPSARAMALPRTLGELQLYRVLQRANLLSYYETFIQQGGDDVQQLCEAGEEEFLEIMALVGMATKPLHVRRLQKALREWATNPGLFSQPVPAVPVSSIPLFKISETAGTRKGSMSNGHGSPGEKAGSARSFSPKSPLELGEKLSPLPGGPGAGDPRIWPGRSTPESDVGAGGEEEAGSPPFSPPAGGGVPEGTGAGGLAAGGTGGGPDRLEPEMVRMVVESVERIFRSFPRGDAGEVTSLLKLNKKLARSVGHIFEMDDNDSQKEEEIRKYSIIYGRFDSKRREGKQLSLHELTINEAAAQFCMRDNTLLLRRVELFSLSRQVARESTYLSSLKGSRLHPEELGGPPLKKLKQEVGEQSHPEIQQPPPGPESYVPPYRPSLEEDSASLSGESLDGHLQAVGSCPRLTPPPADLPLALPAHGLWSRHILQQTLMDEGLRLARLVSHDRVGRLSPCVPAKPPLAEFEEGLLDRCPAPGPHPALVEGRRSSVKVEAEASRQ

Variants of: B1
Conditions: with uxt_human UXT

effect of a mutation on the interaction	Variant
with no effect	S511N
with no effect	V604I

Variants of: B1
Conditions: with fhl3_human FHL3, Q13643
Chain of fhl3_human FHL3, Q13643 (Q13643 whole entry): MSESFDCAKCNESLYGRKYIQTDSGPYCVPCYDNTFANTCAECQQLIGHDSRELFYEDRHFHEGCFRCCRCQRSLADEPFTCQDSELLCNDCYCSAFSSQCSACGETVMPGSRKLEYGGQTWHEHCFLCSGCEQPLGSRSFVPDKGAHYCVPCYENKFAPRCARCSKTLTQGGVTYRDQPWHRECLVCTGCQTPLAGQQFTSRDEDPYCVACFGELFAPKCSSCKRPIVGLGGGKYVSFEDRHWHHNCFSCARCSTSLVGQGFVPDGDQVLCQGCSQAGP

effect of a mutation on the interaction	Variant
with no effect	S511N
with no effect	V604I

Variants of: B1
Conditions: with pdli7_human PDLIM7, Q9NR12
Chain of pdli7_human PDLIM7, Q9NR12 (Q9NR12 whole entry): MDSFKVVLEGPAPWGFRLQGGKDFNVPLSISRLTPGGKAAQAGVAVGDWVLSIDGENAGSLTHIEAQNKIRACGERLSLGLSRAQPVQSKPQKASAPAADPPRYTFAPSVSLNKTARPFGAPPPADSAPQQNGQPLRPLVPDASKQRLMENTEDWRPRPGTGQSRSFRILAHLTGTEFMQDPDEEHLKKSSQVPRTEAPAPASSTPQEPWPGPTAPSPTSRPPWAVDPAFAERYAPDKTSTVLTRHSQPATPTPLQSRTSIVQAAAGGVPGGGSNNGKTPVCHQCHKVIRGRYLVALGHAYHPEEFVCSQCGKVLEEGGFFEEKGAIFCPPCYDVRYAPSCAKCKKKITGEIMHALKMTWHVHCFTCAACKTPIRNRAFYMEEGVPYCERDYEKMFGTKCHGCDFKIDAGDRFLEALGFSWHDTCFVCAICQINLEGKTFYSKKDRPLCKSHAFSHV

effect of a mutation on the interaction	Variant
with no effect	S511N
with no effect	V604I

Variants of: B2
Conditions: with 8odp_human NUDT1, P36639

effect of a mutation on the interaction	Variant
with no effect	E381D

Variants of: B2
Conditions: with 8odp_human NUDT1, P36639
Remark: another data set of the same source

effect of a mutation on the interaction	Variant
with no effect	R197W

Variants of: B3
Conditions: with lmo4_human LMO4, P61968

effect of a mutation on the interaction	Variant
with no effect	K9R

Variants of: B4
Conditions: with creb3_human CREB3, O43889

effect of a mutation on the interaction	Variant
with no effect	R138Q

Variants of: B5
Conditions: with nab2_human NAB2, Q15742

effect of a mutation on the interaction	Variant
with no effect	K127R
